Results on twelve molecules are retold here after patent publication US20110098217A1 (INDIANA UNIVERSITY RESEARCH AND TECHNOLOGY, published 2011).

Experiment [1] has as its target T1, human GLP-1 receptor (human, UniProt P43220 24-463). Briefly: cell-based or functional assay.
Target sequence in this assay (P43220 24-463): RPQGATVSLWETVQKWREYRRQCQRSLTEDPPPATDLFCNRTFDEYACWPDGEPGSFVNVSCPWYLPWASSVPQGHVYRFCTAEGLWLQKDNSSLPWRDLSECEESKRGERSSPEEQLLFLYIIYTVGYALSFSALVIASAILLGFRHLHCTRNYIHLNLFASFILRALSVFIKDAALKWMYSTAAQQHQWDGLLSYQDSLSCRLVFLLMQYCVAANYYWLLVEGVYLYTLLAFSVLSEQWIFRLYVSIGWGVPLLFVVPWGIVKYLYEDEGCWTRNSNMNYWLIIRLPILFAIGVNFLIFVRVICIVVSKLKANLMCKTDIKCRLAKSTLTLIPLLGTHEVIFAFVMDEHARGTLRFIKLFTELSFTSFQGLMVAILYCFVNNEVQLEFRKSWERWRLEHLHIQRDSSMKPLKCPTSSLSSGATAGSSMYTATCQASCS
For experiment [2], the target named is T2, human glucagon receptor (human, UniProt P47871 26-477). The experiment can be described thus: cell-based or functional assay.
Experiment [3] addresses T1, human GLP-1 receptor. Briefly: cell-based or functional assay. The source holds these as a separate data set.
The target of experiment [4] is T2, human glucagon receptor. Briefly: cell-based or functional assay. This is another data set of the same source.
For experiment [5], the target named is T1, human GLP-1 receptor. Briefly: cell-based or functional assay. The source holds these as a separate data set.
Experiment [6] concerns the target T2, human glucagon receptor. The experiment can be described thus: cell-based or functional assay. This is another data set of the same source.
The target of experiment [7] is T1, human GLP-1 receptor. Briefly: cell-based or functional assay. The source holds these as a separate data set.
Experiment [8] has as its target T2, human glucagon receptor. Briefly: cell-based or functional assay. This is another data set of the same source.
In experiment [9] the target is T1, human GLP-1 receptor. Briefly: cell-based or functional assay. This is another data set of the same source.
Experiment [10] deals with T2, human glucagon receptor. The experiment can be described thus: cell-based or functional assay. This is another data set of the same source.
Experiment [11] addresses T1, human GLP-1 receptor. The experiment can be described thus: cell-based or functional assay. The source holds these as a separate data set.
The target of experiment [12] is T1, human GLP-1 receptor. Briefly: cell-based or functional assay. This is another data set of the same source.
Experiment [13] concerns the target T2, human glucagon receptor. Briefly: cell-based or functional assay. The source holds these as a separate data set.
The target in experiment [14] is T1, human GLP-1 receptor. Briefly: cell-based or functional assay. This is another data set of the same source.
The target of experiment [15] is T2, human glucagon receptor. The experiment can be described thus: cell-based or functional assay. The source holds these as a separate data set.
For experiment [16], the target named is T1, human GLP-1 receptor. The experiment can be described thus: cell-based or functional assay. The source holds these as a separate data set.
In experiment [17] the target is T2, human glucagon receptor. The experiment can be described thus: cell-based or functional assay. The source holds these as a separate data set.
In experiment [18] the target is T1, human GLP-1 receptor. Briefly: cell-based or functional assay. The source holds these as a separate data set.
Experiment [19] addresses T2, human glucagon receptor. Briefly: cell-based or functional assay. This is another data set of the same source.
Experiment [20] addresses T2, human glucagon receptor. Briefly: cell-based or functional assay. This is another data set of the same source.
Experiment [21] addresses T2, human glucagon receptor. Briefly: SPA competition vs 125I-glucagon, receptor membranes.
Experiment [22] has as its target T2, human glucagon receptor. The experiment can be described thus: cell-based or functional assay. This is another data set of the same source.
The target of experiment [23] is T2, human glucagon receptor. Briefly: SPA competition vs 125I-glucagon, receptor membranes. The source holds these as a separate data set.
Experiment [24] has as its target T2, human glucagon receptor. The experiment can be described thus: cell-based or functional assay. This is another data set of the same source.
In experiment [25] the target is T2, human glucagon receptor. Briefly: SPA competition vs 125I-glucagon, receptor membranes. The source holds these as a separate data set.
The target of experiment [26] is T2, human glucagon receptor. The description is as above. This is another data set of the same source.
Experiment [27] addresses T2, human glucagon receptor. Briefly: cell-based or functional assay. The source holds these as a separate data set.
Experiment [28] concerns the target T2, human glucagon receptor. Briefly: cell-based or functional assay. This is another data set of the same source.
Experiment [29] concerns the target human glucagon receptor (human) (UniProt P47871). The experiment can be described thus: cell-based or functional assay.
The target is the same in experiment [30]. Briefly: cell-based or functional assay. The source holds these as a separate data set.
Experiment [31] addresses human GLP-1 receptor (human) (UniProt P43220). The experiment can be described thus: cell-based or functional assay.
Experiment [32] has the same target. Briefly: cell-based or functional assay. The source holds these as a separate data set.
In experiment [33] the target is T2, human glucagon receptor. The experiment can be described thus: SPA competition vs 125I-glucagon, receptor membranes. The source holds these as a separate data set.
The target of experiment [34] is T2, human glucagon receptor. The experiment can be described thus: cell-based or functional assay. The source holds these as a separate data set.
Experiment [35] deals with T2, human glucagon receptor. The experiment can be described thus: SPA competition vs 125I-glucagon, receptor membranes. This is another data set of the same source.
For experiment [36], the target named is T1, human GLP-1 receptor. Briefly: cell-based or functional assay. This is another data set of the same source.
Experiment [37] addresses T1, human GLP-1 receptor. Briefly: cell-based or functional assay. The source holds these as a separate data set.
The target in experiment [38] is T2, human glucagon receptor. Briefly: cell-based or functional assay. The source holds these as a separate data set.
Experiment [39] concerns the target T1, human GLP-1 receptor. The experiment can be described thus: cell-based or functional assay. The source holds these as a separate data set.
Experiment [40] concerns the target T2, human glucagon receptor. The experiment can be described thus: cell-based or functional assay. The source holds these as a separate data set.

Where “and” joins values, the source holds several entries; their conditions need not be identical. Identical values can stand only once. Like-named read-outs stand apart in the source and are kept apart here. Bridge positions count the residues as written; N and C are the ends. Square brackets hold non-standard residues; d marks the D form. Ends that are not written are not given here. PhLac = O=C(O)[C@@H](O)Cc1ccccc1

Chain of human GLP-1 receptor (human) (P43220 24-463): as above
T2 sequence (P47871 26-477): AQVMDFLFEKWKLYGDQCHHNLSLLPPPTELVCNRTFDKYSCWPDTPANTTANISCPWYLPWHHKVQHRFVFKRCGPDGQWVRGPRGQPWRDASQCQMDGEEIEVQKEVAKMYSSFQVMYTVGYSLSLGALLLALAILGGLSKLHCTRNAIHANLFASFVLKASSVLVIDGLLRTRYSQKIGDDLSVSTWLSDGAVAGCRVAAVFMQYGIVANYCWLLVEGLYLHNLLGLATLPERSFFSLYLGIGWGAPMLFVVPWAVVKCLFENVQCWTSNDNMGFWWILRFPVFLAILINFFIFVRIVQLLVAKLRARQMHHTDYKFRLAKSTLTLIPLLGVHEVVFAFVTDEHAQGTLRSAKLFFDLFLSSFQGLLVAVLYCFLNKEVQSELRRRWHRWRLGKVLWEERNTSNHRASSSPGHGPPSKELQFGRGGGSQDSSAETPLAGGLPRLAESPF
Chain of human glucagon receptor (human) (P47871 26-477): as above

Take “[PLA6, E9, K12E16(Lactam)] glucagon(6-39) (peptide)”: the GLP-1 EC50 in the experiment with human GLP-1 receptor [1] was found to be 6 nM. In the experiment with human glucagon receptor [2], this molecule came in with a Glu IC50 of 72 nM and a Glucagon IC50 of 72 nM.

With HSQGTFTSDYSRYLDSRRAQDFVQWLMNK [Glucagon R12 K29], the results for the “cAMP Induction EC50” value with human GLP-1 receptor [3] and with human glucagon receptor [4] were 0.41 nM and 0.81 nM, respectively.

As for [PhLac]TSDYSKYLDERRAKDFVQWLMDT-NH2 (lactam 11-15) [[PLA6, E16K20(lactam), D28]G(6-29)], the “GLP-1 agonism EC50” value was 18.2 nM with human GLP-1 receptor [5]; 6.9 nM and 4.2 nM with human GLP-1 receptor [7]; 20.7 nM with human GLP-1 receptor [11]; 10.6 nM in the experiment with human GLP-1 receptor [12]; 6.9 nM and 4.2 nM with human GLP-1 receptor [14]; 10.6 nM in the experiment with human GLP-1 receptor [16]. In addition, the “GLP-1 agonism EC50” value with human GLP-1 receptor [18] turned out to be 48 nM. Moreover, the figures for the “Glucagon antagonism IC50 (inhibit 0.8 nM glucagon)” value with human glucagon receptor [6], with human glucagon receptor [13] and with human glucagon receptor [17] were 20.3 nM, 13.7 nM and 13.7 nM, respectively. For the same molecule, the “Glucagon antagonism IC50 (inhibit 0.2-0.8 nM glucagon)” value in the experiment with human glucagon receptor [8] is 11.7 nM and 5.5 nM; with human glucagon receptor [15], 11.7 nM and 5.5 nM. Moreover, in the experiment with human GLP-1 receptor [9], the “GLP-1 EC50” value amounted to 4 nM. Moreover, in the experiment with human glucagon receptor [10], the “Glucagon IC50” value stood at 6 nM. Moreover, the “Glucagon antagonism IC50 (inhibit 0.4 nM glucagon)” value with human glucagon receptor [19] is 4.14 nM and 7.99 nM.

B1: [Glu^9]Glucagon(aa6-29)-NH2 (peptide)
peptide: FTSEYSKYLDSRRAQDFVQWLMNT-NH2
notes: also called [E^9]Glucagon(aa6-29)-NH2; peptide no; 11
B1: the “cAMP IC50” value with human glucagon receptor [20] came out at 97.2 nM. Moreover, the “cAMP pA2” value with human glucagon receptor [20] and with human glucagon receptor [22] was 7.16 in each case. In addition, the IC50 is 36.4 nM in the experiment with human glucagon receptor [21], 36.4 nM with human glucagon receptor [23] and 36 nM in the experiment with human glucagon receptor [25]. Besides, the “cAMP (I/A)50 inhibition index” value with human glucagon receptor [22] is 486. For the same molecule, the “cAMP Inhibition IC50” value with human glucagon receptor [24] was determined as 97 nM.

B2: [PLA^6, D^9, D^28] Glucagon(aa6-29)-NH2 (peptide)
peptide: FTSDYSKYLDSRRAQDFVQWLMDT
modifications: PLA at position 6; C-terminal amide
notes: also called [PLA6, D9, D28]Glucagon(6-29)
In the experiment with human glucagon receptor [26], B2 registered an IC50 of 9 nM. For the same molecule, the “IC50 (cAMP, inhibit 0.1 nM Glucagon)” value with human glucagon receptor [27] worked out at 1.32 nM. Besides, the “Glucagon antagonism IC50 (inhibit 0.5nM G)” value in the experiment with human glucagon receptor [28] worked out at 9.03 nM.

As to FTSEYSKYLDERRAQDFVQWLMNTGPSSGAPPPS (C-terminal amide) [[E9, E16]G(6-39)], in [29], the Glucagon IC50 stood at 762 nM. In experiment [30], this molecule showed a Glu IC50 of 762 nM and a Glucagon antagonism IC50 (inhibit 0.2-0.8 nM glucagon) of 762 nM.

Take FTSEYSKYLDERRAQDFVQWLMNTGPSSGAPPPS (lactam bridge Lys12-Glu16 (native glucagon numbering); C-terminal amide) [E9, K12E16(lactam) glucagon(6-39)]: in [29], the Glucagon IC50 amounted to 2010 nM. The GLP-1 EC50 in experiment [31] was 63 nM. This molecule had a Glu IC50 in experiment [30] of 2010 nM.

Regarding FTSDYSKYLDERRAQDFVQWLMNTGPSSGAPPPS (lactam bridge Lys12-Glu16; C-terminal amide) [D9, K12E16(Lactam) glucagon(6-39)], the figures for the GLP-1 EC50 in [32] and in experiment [31] were 18 nM and 119 nM, respectively. The molecule also displayed a Glucagon IC50 in [29] of 828 nM. The same molecule had a Glu IC50 in experiment [30] of 828 nM.

B3: [PLA^6, E^9]Glucagon(aa6-29)-NH2 (peptide)
peptide: [PhLac]TSEYSKYLDSRRAQDFVQWLMNT-NH2
notes: also called [PLA6, E9]; G(6-29); [PLA6, E9]Glucagon(6-29)
As for B3, the IC50 with human glucagon receptor [26] and with human glucagon receptor [35] was 12.3 nM each time. The “GLP-1 agonism EC50” value with human GLP-1 receptor [5] stood at 901 nM. Also, the “Glucagon antagonism IC50 (inhibit 0.8 nM glucagon)” value with human glucagon receptor [6] is 94.7 nM. In addition, the “IC50 (cAMP, inhibit 0.1 nM Glucagon)” value with human glucagon receptor [27] came to 2.39 nM. For the same molecule, the “IC50 (cAMP, inhibit 0.2 nM Glucagon)” value in the experiment with human glucagon receptor [27] was found to be 42.4 nM. Besides, the “fold increase of affinity relative to the native Phe6 analog” value in the experiment with human glucagon receptor [33] was 3 fold. Further, the “IC50 (cAMP, inhibit 0.8 mM Glucagon)” value in the experiment with human glucagon receptor [34] came to 64.8 nM. In the experiment with human glucagon receptor [28], the “Glucagon antagonism IC50 (inhibit 0.5nM G)” value is 23.8 nM.

SQGTXTSEYSKYLDSRRAQDFVQWLMNT (depsipeptide bond between Thr5 and PLA6; C-terminal amide) [[Thr5-O-PLA6,E9]Glucagon(2-29)]: the “GLP-1 agonism EC50” value with human GLP-1 receptor [36] stood at 1310 nM. For the same molecule, the “Glucagon antagonism IC50 (inhibit 0.5nM G)” value with human glucagon receptor [28] amounted to 6.49 nM.

B4: [PLA6, K12E16(lactam), D28]G(6-29) (peptide)
peptide: [PhLac]TSDYSKYLDERRAQDFVQWLMDT-NH2
modifications: lactam 7-11; N-terminus assumed
SMILES: CSCC[C@H](NC(=O)[C@H](CC(C)C)NC(=O)[C@H](Cc1c[nH]c2ccccc12)NC(=O)[C@H](CCC(N)=O)NC(=O)[C@@H](NC(=O)[C@H](Cc1ccccc1)NC(=O)[C@H](CC(=O)O)NC(=O)[C@H](CCC(N)=O)NC(=O)[C@H](C)NC(=O)[C@H](CCCNC(=N)N)NC(=O)[C@H](CCCNC(=N)N)NC(=O)[C@@H]1CCC(=O)NCCCC[C@H](NC(=O)[C@H](CO)NC(=O)[C@H](Cc2ccc(O)cc2)NC(=O)[C@H](CC(=O)O)NC(=O)[C@H](CO)NC(=O)[C@@H](NC(=O)[C@@H](O)Cc2ccccc2)[C@@H](C)O)C(=O)N[C@@H](Cc2ccc(O)cc2)C(=O)N[C@@H](CC(C)C)C(=O)N[C@@H](CC(=O)O)C(=O)N1)C(C)C)C(=O)N[C@@H](CC(=O)O)C(=O)N[C@H](C(N)=O)[C@@H](C)O
Consider B4, for which the “GLP-1 agonism EC50” value with human GLP-1 receptor [7], in the experiment with human GLP-1 receptor [37] and with human GLP-1 receptor [14] was 38.5 nM in each case. The “Glucagon antagonism IC50 (inhibit 0.2-0.8 nM glucagon)” value with human glucagon receptor [8], in the experiment with human glucagon receptor [38] and with human glucagon receptor [15] was 58.3 nM in each case. Also, the “GLP-1 EC50” value is 21 nM with human GLP-1 receptor [9] and 177 nM with human GLP-1 receptor [39]. Also, the “Glucagon IC50” value came out at 13 nM with human glucagon receptor [10] and 63 nM with human glucagon receptor [40].

On to GTFTSEYSKYLDSRRAQDFVQWLMNT-NH2 (also called peptide no) [[Glu^9]Glucagon(aa4-29)-NH2], for which the “cAMP pA2” value with human glucagon receptor [22] was 7.05. In the experiment with human glucagon receptor [24], the “cAMP Inhibition IC50” value was 128 nM.

Usually IC50 stands for the concentration that gives 50% inhibition. A low value points to inhibition by little substance.
